Reference: article doi:10.1101/2025.06.18.660405 (bioRxiv, 2025)
Like-named read-outs stand apart in the source and are kept apart here.

Tests used:
Assay in all cases: pull-down
[1] = molecular target: fibrillarin F>S (six phenylalanines of the N-terminal GF-IDR replaced with serines) (human) (UniProt P22087)
[2] = molecular target: fibrillarin F>S (six phenylalanines of the N-terminal GF-IDR replaced with serines) (human) (UniProt P22087); remark: listed apart in the source
[3] = molecular target: T1, MBP-GAR1 (full-length) (human, UniProt Q9NY12 1-217)
T1 sequence (looked up): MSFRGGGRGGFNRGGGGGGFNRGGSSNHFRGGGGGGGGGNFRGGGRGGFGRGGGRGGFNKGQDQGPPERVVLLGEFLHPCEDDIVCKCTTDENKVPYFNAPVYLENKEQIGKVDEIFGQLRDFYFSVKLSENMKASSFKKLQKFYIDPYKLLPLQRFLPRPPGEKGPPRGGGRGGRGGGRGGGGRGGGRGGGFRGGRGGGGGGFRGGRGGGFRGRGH

[4] = molecular target: T2, MBP-fibrillarin (full-length) (human, UniProt P22087 1-321)
T2 sequence (looked up): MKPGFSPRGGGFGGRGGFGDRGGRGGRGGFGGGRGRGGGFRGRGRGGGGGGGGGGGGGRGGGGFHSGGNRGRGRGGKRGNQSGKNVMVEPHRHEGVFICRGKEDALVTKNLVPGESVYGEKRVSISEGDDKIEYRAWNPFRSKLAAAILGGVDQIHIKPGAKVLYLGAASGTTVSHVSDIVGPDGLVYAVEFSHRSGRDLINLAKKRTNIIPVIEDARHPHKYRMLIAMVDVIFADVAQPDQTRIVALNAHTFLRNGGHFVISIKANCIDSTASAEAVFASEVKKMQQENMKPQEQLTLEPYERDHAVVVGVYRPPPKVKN

[5] = molecular target: MBP-NOP58 ΔNLS (human) (UniProt Q9Y2X3)
[6] = molecular target: T3, MBP fused to the C-terminal NLS IDR of NAP57 (92aa) (human)
T3 sequence (O60832 whole entry, looked up): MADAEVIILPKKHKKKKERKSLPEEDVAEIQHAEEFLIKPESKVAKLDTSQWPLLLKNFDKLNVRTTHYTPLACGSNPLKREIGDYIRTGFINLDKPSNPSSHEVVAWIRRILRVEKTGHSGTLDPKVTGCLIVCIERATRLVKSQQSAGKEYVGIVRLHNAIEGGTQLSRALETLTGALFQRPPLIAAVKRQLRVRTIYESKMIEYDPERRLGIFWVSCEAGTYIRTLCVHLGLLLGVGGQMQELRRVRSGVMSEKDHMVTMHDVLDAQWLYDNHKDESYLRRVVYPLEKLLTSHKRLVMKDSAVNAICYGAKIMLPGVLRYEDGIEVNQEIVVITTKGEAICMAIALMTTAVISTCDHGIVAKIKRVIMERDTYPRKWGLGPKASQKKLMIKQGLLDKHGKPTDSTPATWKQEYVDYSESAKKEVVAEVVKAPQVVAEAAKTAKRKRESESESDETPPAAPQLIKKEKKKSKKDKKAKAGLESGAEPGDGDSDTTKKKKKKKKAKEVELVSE

MBP-NOP58 ΔNLS (human), sequence (Q9Y2X3 whole entry, stated change not applied, the tested form may be a part): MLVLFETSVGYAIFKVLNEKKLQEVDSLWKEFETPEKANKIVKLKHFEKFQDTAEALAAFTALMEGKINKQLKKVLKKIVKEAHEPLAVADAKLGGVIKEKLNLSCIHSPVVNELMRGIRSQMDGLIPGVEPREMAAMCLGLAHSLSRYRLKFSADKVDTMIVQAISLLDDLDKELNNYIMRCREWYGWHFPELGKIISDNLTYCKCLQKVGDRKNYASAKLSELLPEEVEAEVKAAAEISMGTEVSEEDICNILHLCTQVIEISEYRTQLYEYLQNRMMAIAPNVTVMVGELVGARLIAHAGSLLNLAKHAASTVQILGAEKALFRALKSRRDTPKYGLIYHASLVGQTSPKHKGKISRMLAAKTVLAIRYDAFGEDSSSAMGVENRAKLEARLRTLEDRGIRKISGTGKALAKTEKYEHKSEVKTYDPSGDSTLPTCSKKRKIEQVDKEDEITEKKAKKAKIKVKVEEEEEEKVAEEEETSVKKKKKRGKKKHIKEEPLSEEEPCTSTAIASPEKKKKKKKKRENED

B1: GST-GAR1 (natural protein, human, UniProt Q9NY12 1-217, looked up)
chain: MSFRGGGRGGFNRGGGGGGFNRGGSSNHFRGGGGGGGGGNFRGGGRGGFGRGGGRGGFNKGQDQGPPERVVLLGEFLHPCEDDIVCKCTTDENKVPYFNAPVYLENKEQIGKVDEIFGQLRDFYFSVKLSENMKASSFKKLQKFYIDPYKLLPLQRFLPRPPGEKGPPRGGGRGGRGGGRGGGGRGGGRGGGFRGGRGGGGGGFRGGRGGGFRGRGH
- reduction of binding relative to wild-type fibrillarin [1]: 40%
- reduction of binding relative to wild-type fibrillarin [2]: 35%
- binding result [3]: binds
- binding result [4]: binds

B2: GFP-Nopp140 (phosphorylated) (natural protein)
chain: MADAGIRRVVPSDLYPLVLGFLRDNQLSEVANKFAKATGATQQDANASSLLDIYSFWLKSAKVPERKLQANGPVAKKAKKKASSSDSEDSSEEEEEVQGPPAKKAAVPAKRVGLPPGKAAAKASESSSSEESSDDDDEEDQKKQPVQKGVKPQAKAAKAPPKKAKSSDSDSDSSSEDEPPKNQKPKITPVTVKAQTKAPPKPARAAPKIANGKAASSSSSSSSSSSSDDSEEEKAAATPKKTVPKKQVVAKAPVKAATTPTRKSSSSEDSSSDEEEEQKKPMKNKPGPYSSVPPPSAPPPKKSLGTQPPKKAVEKQQPVESSEDSSDESDSSSEEEKKPPTKAVVSKATTKPPPAKKAAESSSDSSDSDSSEDDEAPSKPAGTTKNSSNKPAVTTKSPAVKPAAAPKQPVGGGQKLLTRKADSSSSEEESSSSEEEKTKKMVATTKPKATAKAALSLPAKQAPQGSRDSSSDSDSSSSEEEEEKTSKSAVKKKPQKVAGGAAPSKPASAKKGKAESSNSSSSDDSSEEEEEKLKGKGSPRPQAPKANGTSALTAQNGKAAKNSEEEEEEKKKAAVVVSKSGSLKKRKQNEAAKEAETPQAKKIKLQTPNTFPKRKKGEKRASSPFRRVREEEIEVDSRVADNSFDAKRGAAGDWGERANQVLKFTKGKSFRHEKTKKKRGSYRGGSISVQVNSIKFDSE
modifications: serines of the acidic serine repeats phosphorylated (expressed in insect cells to be fully phosphorylated)
- GFP-Nopp140 pulled down relative to WT MBP-NOP58 [5]: 20%

B3: Nopp140 (phosphorylated, hexa histidine tagged) (natural protein)
chain: MADAGIRRVVPSDLYPLVLGFLRDNQLSEVANKFAKATGATQQDANASSLLDIYSFWLKSAKVPERKLQANGPVAKKAKKKASSSDSEDSSEEEEEVQGPPAKKAAVPAKRVGLPPGKAAAKASESSSSEESSDDDDEEDQKKQPVQKGVKPQAKAAKAPPKKAKSSDSDSDSSSEDEPPKNQKPKITPVTVKAQTKAPPKPARAAPKIANGKAASSSSSSSSSSSSDDSEEEKAAATPKKTVPKKQVVAKAPVKAATTPTRKSSSSEDSSSDEEEEQKKPMKNKPGPYSSVPPPSAPPPKKSLGTQPPKKAVEKQQPVESSEDSSDESDSSSEEEKKPPTKAVVSKATTKPPPAKKAAESSSDSSDSDSSEDDEAPSKPAGTTKNSSNKPAVTTKSPAVKPAAAPKQPVGGGQKLLTRKADSSSSEEESSSSEEEKTKKMVATTKPKATAKAALSLPAKQAPQGSRDSSSDSDSSSSEEEEEKTSKSAVKKKPQKVAGGAAPSKPASAKKGKAESSNSSSSDDSSEEEEEKLKGKGSPRPQAPKANGTSALTAQNGKAAKNSEEEEEEKKKAAVVVSKSGSLKKRKQNEAAKEAETPQAKKIKLQTPNTFPKRKKGEKRASSPFRRVREEEIEVDSRVADNSFDAKRGAAGDWGERANQVLKFTKGKSFRHEKTKKKRGSYRGGSISVQVNSIKFDSE
modifications: serines of the acidic serine repeats phosphorylated (expressed in insect cells to be fully phosphorylated)
- Nopp140 pulled down relative to full-length NAP57 [6]: 50%
